Like-named read-outs stand apart in the source and are kept apart here.

The target in assay [1] is T1, Nectin-4 on T-47D cells (human, UniProt Q96NY8 32-510).
T1 construct: whole, on cells; endogenous expression; also called T-47D cells positive for Nectin-4 expression
T1 sequence (looked up): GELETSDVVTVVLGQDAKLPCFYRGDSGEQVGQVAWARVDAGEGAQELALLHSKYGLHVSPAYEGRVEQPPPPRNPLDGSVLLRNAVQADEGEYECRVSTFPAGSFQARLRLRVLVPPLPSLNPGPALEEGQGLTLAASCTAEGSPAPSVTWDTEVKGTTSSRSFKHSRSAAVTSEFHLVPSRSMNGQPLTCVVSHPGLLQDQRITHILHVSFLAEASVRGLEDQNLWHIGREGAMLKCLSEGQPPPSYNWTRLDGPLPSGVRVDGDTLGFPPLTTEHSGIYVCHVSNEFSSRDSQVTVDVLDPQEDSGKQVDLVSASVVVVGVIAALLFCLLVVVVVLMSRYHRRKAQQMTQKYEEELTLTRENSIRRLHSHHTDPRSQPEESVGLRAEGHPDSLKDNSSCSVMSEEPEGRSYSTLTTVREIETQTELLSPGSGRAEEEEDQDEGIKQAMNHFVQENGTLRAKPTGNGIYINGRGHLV
Nature of the assay: FACS on T-47D cells, 10 µg/mL on ice, 0 h point of the endocytosis assay. As to the method: (§1) In this assay, the relative amount of antibodies remaining on the cell surface after co-incubation at 37° C. for a certain period of time was detected by FACS to reflect the endocytosis efficiency. The procedures are briefly described as follows: T-47D cells (human ductal breast cancer cells, derived from the Cell Bank of Chinese Academy of Sciences, Cat. No. TCHu 87); the antibodies were adjusted to 10 μg/mL and co-incubated with the cells on ice for 1 h; the cells were washed 3 times with pre-cooled PBS, and then placed at 37° C. and incubated for 0 h, 2 h and 4 h; 0.2% N₃Na was added to stop the endocytosis reaction; the cells were washed with PBS thrice, followed by the addition of the PE-labeled anti-human Fc secondary antibody (Invitrogen 12-4998-82); the cells were incubated at 4° C. for 30 min; the red fluorescence signal was detected on a flow cytometer.

Assay [2] concerns the target T2, hNectin-1 (ACRO, PV1-H5223) (human, UniProt Q15223 31-334).
T2 construct: bought
T2 sequence (looked up): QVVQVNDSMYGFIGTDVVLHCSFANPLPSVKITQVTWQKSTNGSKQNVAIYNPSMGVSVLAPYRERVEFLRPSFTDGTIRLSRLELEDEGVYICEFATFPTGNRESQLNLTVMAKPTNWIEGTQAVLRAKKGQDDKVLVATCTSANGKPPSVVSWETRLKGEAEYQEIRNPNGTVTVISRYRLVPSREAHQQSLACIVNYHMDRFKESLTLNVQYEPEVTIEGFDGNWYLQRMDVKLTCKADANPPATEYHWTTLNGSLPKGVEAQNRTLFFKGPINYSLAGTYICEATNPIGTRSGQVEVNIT
Nature of the assay: ELISA, antigen coated, HRP-labeled anti-human-Kappa secondary antibody. As to the method: (§2) The binding activity of intact antibodies was detected by ELISA. The procedures are briefly described as follows: the hNectin-4-His antigen protein of Example 1 was immobilized at a concentration of 1 μg/mL on a plate; the plate was blocked with skimmed milk powder overnight, and then, serially diluted antibodies of interest were added for co-incubation (antibodies in Table 9 were serially 2-fold diluted from 2 μg/mL; antibodies in Tables 10 and 11 were serially 3-fold diluted from 10 μg/mL) at room temperature for 2 h; then an HRP-labeled anti-human-kappa (Sigma, A7164) secondary antibody was added for co-incubation for 1 h, followed by the addition of TMB (Huzhou InnoReagents, TMB-S-001) for chromogenic reaction, and the reaction was stopped with 0.1 M H₂SO₄; after the absorbance at OD450 was read on a microplate reader, the binding EC₅₀ value for each antibody was calculated by four-parameter fitting, and the binding activities of the antibodies were compared.
(§3) In this assay, the binding of different antibodies to human Nectin-4 homologous proteins hNectin-1 (ACRO, PV1-H5223), hNectin-2 (ACRO, PV2-H52E2), hNectin-3 (ACRO, PV3-H52E4), and hNectin-4-His was detected by ELISA to determine the specificity of the antibodies. For the methodology and procedures, see Example 4. Antigens of interest ([…]) were immobilized; after blocking, serially diluted antibodies (2-fold serially diluted from […]) were added, and HRP-labeled anti-human-Kappa secondary antibody was added for chromogenic reaction.

For assay [3], the target named is T3, hNectin-2 (ACRO, PV2-H52E2) (human, UniProt Q92692 32-360).
T3 construct: bought
T3 sequence (looked up): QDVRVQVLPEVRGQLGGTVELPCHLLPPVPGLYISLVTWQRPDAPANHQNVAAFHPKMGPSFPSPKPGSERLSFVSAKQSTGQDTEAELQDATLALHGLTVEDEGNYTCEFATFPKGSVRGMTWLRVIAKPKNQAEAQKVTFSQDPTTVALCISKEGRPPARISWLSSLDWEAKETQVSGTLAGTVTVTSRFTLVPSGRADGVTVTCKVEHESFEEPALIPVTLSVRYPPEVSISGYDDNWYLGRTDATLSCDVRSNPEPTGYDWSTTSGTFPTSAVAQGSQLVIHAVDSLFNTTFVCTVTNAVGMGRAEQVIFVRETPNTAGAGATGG
Described as above. As to the method: as §2, §3

Assay [4] addresses T1, Nectin-4 on T-47D cells. The assay is described as follows: FACS on T-47D cells, 10 µg/mL on ice, 0 h point of the endocytosis assay. As to the method: as §1
This is another data set of the same source.

B1: antibody 1F3 (antibody, human IgG1, kappa, V domains shown)
VH: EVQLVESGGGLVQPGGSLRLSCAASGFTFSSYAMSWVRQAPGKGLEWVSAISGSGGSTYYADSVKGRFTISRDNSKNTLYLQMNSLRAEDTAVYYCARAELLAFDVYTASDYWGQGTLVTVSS
VL: DIQMTQSPSSLSASVGDRVTITCRASQGISSYLAWYQQKPGKAPKLLIYAASSLQSGVPSRFSGSGSGTDFTLTISSLQPEDFATYYCQQHYTTPPTFGQGTKVEIKR
notes: intact antibody
As for B1, the “MFI (0 h)” value in assay [1] amounted to 121000 MFI. Moreover, the binding result in assay [2] and in assay [3] was “no binding (tested: 2000 ng/mL)” each time.

B2: reference antibody ASG-22 (antibody, human IgG1, kappa, V domains shown)
VH: EVQLVESGGGLVQPGGSLRLSCAASGFTFSSYNMNWVRQAPGKGLEWVSYISSSSSTIYYADSVKGRFTISRDNAKNSLSLQMNSLRDEDTAVYYCARAYYYGMDVWGQGTLVTVSS
VL: DIQMTQSPSSVSASVGDRVTITCRASQGISGWLAWYQQKPGKAPKFLIYAASTLQSGVPSRFSGSGSGTDFTLTISSLQPEDFATYYCQQANSFPPTFGGGTKVEIKR
In the case of B2, the “MFI (0 h)” value in assay [1] was 107000 MFI; in assay [4] it was 58600 MFI.

B3: antibody 1F3-1E1 (antibody, human IgG1, kappa, V domains shown)
VH: EVQLVESGGGLVQPGGSLRLSCAASGFSFDDYAMSWVRQAPGKGLEWVSIIYPTGSTNYYADSVKGRFTISRDNSKNTLYLQMNSLRAEDTAVYYCARAELLAFDVYTASDYWGQGTLVTVSS
VL: DIQMTQSPSSLSASVGDRVTITCRASQGISSYLAWYQQKPGKAPKLLIYAASSLQSGVPSRFSGSGSGTDFTLTISSLQPEDFATYYCQQHYTTPPTFGQGTKVEIKR
notes: intact antibody
On to B3, for which the “MFI (0 h)” value in assay [4] was determined as 73400 MFI.

B4: antibody 3A10 (antibody, human IgG1, kappa, V domains shown)
VH: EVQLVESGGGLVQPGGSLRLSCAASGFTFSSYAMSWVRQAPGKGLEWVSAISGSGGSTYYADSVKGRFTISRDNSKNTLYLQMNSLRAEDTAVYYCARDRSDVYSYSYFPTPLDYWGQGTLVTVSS
VL: DIQMTQSPSSLSASVGDRVTITCRASQGISSYLAWYQQKPGKAPKLLIYAASSLQSGVPSRFSGSGSGTDFTLTISSLQPEDFATYYCQQHYTTPPTFGQGTKVEIKR
notes: intact antibody
As to B4, the “MFI (0 h)” value in assay [1] amounted to 105000 MFI.

B5: antibody 1B4 (antibody, human IgG1, kappa, V domains shown)
VH: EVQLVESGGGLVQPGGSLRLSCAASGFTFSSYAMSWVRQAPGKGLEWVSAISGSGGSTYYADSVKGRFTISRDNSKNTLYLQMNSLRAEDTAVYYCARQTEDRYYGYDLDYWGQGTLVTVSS
VL: DIQMTQSPSSLSASVGDRVTITCRASQGISSYLAWYQQKPGKAPKLLIYAASSLQSGVPSRFSGSGSGTDFTLTISSLQPEDFATYYCQQHYTTPPTFGQGTKVEIKR
notes: intact antibody
As for B5, the “MFI (0 h)” value in assay [1] is 108000 MFI.

B6: antibody 10F4-3 (antibody, human IgG1, kappa, V domains shown)
VH: EVQLVESGGGLVQPGGSLRLSCAASGFSFGDFAMSWVRQAPGKGLEWVSVIDGHTAYNSYADSVKGRFTISRDNSKNTLYLQMNSLRAEDTAVYYCAREYSDVVDYVSVRTPLDYWGQGTLVTVSS
VL: DIQMTQSPSSLSASVGDRVTITCRASQGISSYLAWYQQKPGKAPKLLIYAASSLQSGVPSRFSGSGSGTDFTLTISSLQPEDFATYYCQQHYTTPPTFGQGTKVEIKR
notes: intact antibody
Take B6: the “MFI (0 h)” value in assay [4] amounted to 61200 MFI.

B7: antibody 10F4-1 (antibody, human IgG1, kappa, V domains shown)
VH: EVQLVESGGGLVQPGGSLRLSCAASGDSFTNYWMSWVRQAPGKGLEWVSGISQGGSYAYYADSVKGRFTISRDNSKNTLYLQMNSLRAEDTAVYYCAREYSDVVDYVSVRTPLDYWGQGTLVTVSS
VL: DIQMTQSPSSLSASVGDRVTITCRASQGISSYLAWYQQKPGKAPKLLIYAASSLQSGVPSRFSGSGSGTDFTLTISSLQPEDFATYYCQQHYTTPPTFGQGTKVEIKR
notes: intact antibody
With B7, the “MFI (0 h)” value in assay [4] stood at 58600 MFI.

B8: antibody 1F3-1B1 (antibody, human IgG1, kappa, V domains shown)
VH: EVQLVESGGGLVQPGGSLRLSCAASGFTFGTYGMSWVRQAPGKGLEWVSGIKPGDSTTYYADSVKGRFTISRDNSKNTLYLQMNSLRAEDTAVYYCARAELLAFDVYTASDYWGQGTLVTVSS
VL: DIQMTQSPSSLSASVGDRVTITCRASQGISSYLAWYQQKPGKAPKLLIYAASSLQSGVPSRFSGSGSGTDFTLTISSLQPEDFATYYCQQHYTTPPTFGQGTKVEIKR
notes: intact antibody
For B8, the “MFI (0 h)” value in assay [4] was 65300 MFI.

B9: antibody 1F3-2F3 (antibody, human IgG1, kappa, V domains shown)
VH: EVQLVESGGGLVQPGGSLRLSCAASGFNFSDYGMSWVRQAPGKGLEWVSRIDWDGGNTRYADSVKGRFTISRDNSKNTLYLQMNSLRAEDTAVYYCARAELLAFDVYTASDYWGQGTLVTVSS
VL: DIQMTQSPSSLSASVGDRVTITCRASQGISSYLAWYQQKPGKAPKLLIYAASSLQSGVPSRFSGSGSGTDFTLTISSLQPEDFATYYCQQHYTTPPTFGQGTKVEIKR
notes: intact antibody
With B9, the “MFI (0 h)” value in assay [4] stood at 69000 MFI.

B10: antibody 10F4-5 (antibody, human IgG1, kappa, V domains shown)
VH: EVQLVESGGGLVQPGGSLRLSCAASGFIFDGYDMSWVRQAPGKGLEWVSVIKDHGGYKFYADSVKGRFTISRDNSKNTLYLQMNSLRAEDTAVYYCAREYSDVVDYVSVRTPLDYWGQGTLVTVSS
VL: DIQMTQSPSSLSASVGDRVTITCRASQGISSYLAWYQQKPGKAPKLLIYAASSLQSGVPSRFSGSGSGTDFTLTISSLQPEDFATYYCQQHYTTPPTFGQGTKVEIKR
notes: intact antibody
In the case of B10, in assay [4], the “MFI (0 h)” value is 63400 MFI.

B11: antibody 10A4 (antibody, human IgG1, kappa, V domains shown)
VH: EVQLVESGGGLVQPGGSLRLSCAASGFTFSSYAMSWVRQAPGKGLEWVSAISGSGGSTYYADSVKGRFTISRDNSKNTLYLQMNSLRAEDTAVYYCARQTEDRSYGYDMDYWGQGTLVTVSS
VL: DIQMTQSPSSLSASVGDRVTITCRASQGISSYLAWYQQKPGKAPKLLIYAASSLQSGVPSRFSGSGSGTDFTLTISSLQPEDFATYYCQQHYTTPPTFGQGTKVEIKR
notes: intact antibody
In the case of B11, the “MFI (0 h)” value in assay [1] was 107000 MFI.

B12: antibody 1F3-1G11 (antibody, human IgG1, kappa, V domains shown)
VH: EVQLVESGGGLVQPGGSLRLSCAASGYSFTGYGMSWVRQAPGKGLEWVSGISPSGGTIGYADSVKGRFTISRDNSKNTLYLQMNSLRAEDTAVYYCARAELLAFDVYTASDYWGQGTLVTVSS
VL: DIQMTQSPSSLSASVGDRVTITCRASQGISSYLAWYQQKPGKAPKLLIYAASSLQSGVPSRFSGSGSGTDFTLTISSLQPEDFATYYCQQHYTTPPTFGQGTKVEIKR
notes: intact antibody
Consider B12, for which the “MFI (0 h)” value in assay [4] is 60500 MFI.

B13: antibody 1F3-2E8 (antibody, human IgG1, kappa, V domains shown)
VH: EVQLVESGGGLVQPGGSLRLSCAASGYSFSDYGMSWVRQAPGKGLEWVSWISPSKGSASYADSVKGRFTISRDNSKNTLYLQMNSLRAEDTAVYYCARAELLAFDVYTASDYWGQGTLVTVSS
VL: DIQMTQSPSSLSASVGDRVTITCRASQGISSYLAWYQQKPGKAPKLLIYAASSLQSGVPSRFSGSGSGTDFTLTISSLQPEDFATYYCQQHYTTPPTFGQGTKVEIKR
notes: intact antibody
For B13, in assay [4], the “MFI (0 h)” value turned out to be 58200 MFI.

B14: antibody 1F3-2B1 (antibody, human IgG1, kappa, V domains shown)
VH: EVQLVESGGGLVQPGGSLRLSCAASGYNFDNYAMSWVRQAPGKGLEWVSGIKPDSATTYYADSVKGRFTISRDNSKNTLYLQMNSLRAEDTAVYYCARAELLAFDVYTASDYWGQGTLVTVSS
VL: DIQMTQSPSSLSASVGDRVTITCRASQGISSYLAWYQQKPGKAPKLLIYAASSLQSGVPSRFSGSGSGTDFTLTISSLQPEDFATYYCQQHYTTPPTFGQGTKVEIKR
notes: intact antibody
With B14, the “MFI (0 h)” value in assay [4] was 59400 MFI.

Source of the values: patent US20250388667A1 (BIO THERA SOLUTIONS, published 2025).
